Reference: patent US20110151454

What was measured:
[1] = target: HA-SKP2 phosphorylated in vitro by AKT (32P-SKP2), Q13309
[2] = target: HA-tagged p27 phosphorylated at T187 by CDK2/cyclinA, P46527
HA-tagged p27 phosphorylated at T187 by CDK2/cyclinA, P46527, sequence (P46527 whole entry, looked up): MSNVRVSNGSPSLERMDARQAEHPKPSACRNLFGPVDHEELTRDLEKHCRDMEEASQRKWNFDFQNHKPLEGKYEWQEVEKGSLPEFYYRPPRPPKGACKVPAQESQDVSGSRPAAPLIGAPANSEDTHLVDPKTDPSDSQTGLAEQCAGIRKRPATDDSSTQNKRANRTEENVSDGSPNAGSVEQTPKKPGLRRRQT

HA-SKP2 phosphorylated in vitro by AKT (32P-SKP2), Q13309, sequence (Q13309 whole entry, looked up): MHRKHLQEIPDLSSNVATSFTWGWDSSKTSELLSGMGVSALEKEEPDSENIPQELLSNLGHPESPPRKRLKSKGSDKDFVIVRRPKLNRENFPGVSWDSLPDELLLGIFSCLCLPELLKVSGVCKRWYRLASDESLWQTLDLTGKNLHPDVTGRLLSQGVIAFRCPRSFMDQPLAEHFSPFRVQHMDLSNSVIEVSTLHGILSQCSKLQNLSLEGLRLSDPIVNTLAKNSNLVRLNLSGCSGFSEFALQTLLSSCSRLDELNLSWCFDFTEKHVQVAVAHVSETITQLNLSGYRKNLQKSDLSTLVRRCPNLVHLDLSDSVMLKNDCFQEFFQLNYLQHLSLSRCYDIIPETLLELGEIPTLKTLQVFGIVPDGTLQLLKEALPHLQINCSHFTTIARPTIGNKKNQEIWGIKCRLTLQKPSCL

| Protein | removal of 32P from AKT-phosphorylated SKP2 [1] | dephosphorylation of p27 at S10 (phosphatase reaction, Western blot) [2] | dephosphorylation of p27 at T187 (phosphatase reaction, Western blot) [2] | further results |
| --- | --- | --- | --- | --- |
| λ-phosphatase (protein) MRYYEKIDGSKYRNIWVVGDLHGCYTNLMNKLDTIGFDNKKDLLISVGDLVDRGAENVECLELITFPWFRAVRGNHEQMMIDGLSERGNVNHWLLNGGGWFFNLDYDKEILAKALAHKADELPLIIELVSKDKKYVICHADYPFDEYEFGKPVDHQQVIWNRERISNSQNGIVKEIKGADTFIFGHTPAVKPLKFANQMYIDTGAVFCGNLTLIQVQGEGA | γ-phosphatase was able to dephosphorylate SKP2 | – | – | – |
| gst-PPM1H (protein) MLTRVKSAVANFMGGIMAGSSGSEHGGGSCGGSDLPLRFPYGRPEFLGLSQDEVECSADHIARPILILKETRRLPWATGYAEVINAGKSTHNEDQASCEVLTVKKKAGAVTSTPNRNSSKRRSSLPNGEGLQLKENSESEGVSCHYWSLFDGHAGSGAAVVASRLLQHHITEQLQDIVDILKNSAVLPPTCLGEEPENTPANSRTLTRAASLRGGVGAPGSPSTPPTRFFTEKKIPHECLVIGALESAFKEMDLQIERERSSYNISGGCTALIVICLLGKLYVANAGDSRAIIIRNGEIIPMSSEFTPETERQRLQYLAFMQPHLLGNEFTHLEFPRRVQRKELGKKMLYRDFNMTGWAYKTIEDEDLKFPLIYGEGKKARVMATIGVTRGLGDHDLKVHDSNIYIKPFLSSAPEVRIYDLSKYDHGSDDVLILATDGLWDVLSNEEVAEAITQFLPNCDPDDPHRYTLAAQDLVMRARGVLKDRGWRISNDRLGSGDDISVYVIPLIHGNKLS | – | Neither enzyme exhibited activity at S10 | only PPM1H was effective at dephosphorylating p27 at T187 | – |
| flag-PPM1H-H153L (protein) MLTRVKSAVANFMGGIMAGSSGSEHGGGSCGGSDLPLRFPYGRPEFLGLSQDEVECSADHIARPILILKETRRLPWATGYAEVINAGKSTHNEDQASCEVLTVKKKAGAVTSTPNRNSSKRRSSLPNGEGLQLKENSESEGVSCHYWSLFDGLAGSGAAVVASRLLQHHITEQLQDIVDILKNSAVLPPTCLGEEPENTPANSRTLTRAASLRGGVGAPGSPSTPPTRFFTEKKIPHECLVIGALESAFKEMDLQIERERSSYNISGGCTALIVICLLGKLYVANAGDSRAIIIRNGEIIPMSSEFTPETERQRLQYLAFMQPHLLGNEFTHLEFPRRVQRKELGKKMLYRDFNMTGWAYKTIEDEDLKFPLIYGEGKKARVMATIGVTRGLGDHDLKVHDSNIYIKPFLSSAPEVRIYDLSKYDHGSDDVLILATDGLWDVLSNEEVAEAITQFLPNCDPDDPHRYTLAAQDLVMRARGVLKDRGWRISNDRLGSGDDISVYVIPLIHGNKLS | – | – | Wildtype PPM1H but not PPM1H-H153L dephosphorylated p27 at T187 | – |
| flag-PPM1H (protein) MLTRVKSAVANFMGGIMAGSSGSEHGGGSCGGSDLPLRFPYGRPEFLGLSQDEVECSADHIARPILILKETRRLPWATGYAEVINAGKSTHNEDQASCEVLTVKKKAGAVTSTPNRNSSKRRSSLPNGEGLQLKENSESEGVSCHYWSLFDGHAGSGAAVVASRLLQHHITEQLQDIVDILKNSAVLPPTCLGEEPENTPANSRTLTRAASLRGGVGAPGSPSTPPTRFFTEKKIPHECLVIGALESAFKEMDLQIERERSSYNISGGCTALIVICLLGKLYVANAGDSRAIIIRNGEIIPMSSEFTPETERQRLQYLAFMQPHLLGNEFTHLEFPRRVQRKELGKKMLYRDFNMTGWAYKTIEDEDLKFPLIYGEGKKARVMATIGVTRGLGDHDLKVHDSNIYIKPFLSSAPEVRIYDLSKYDHGSDDVLILATDGLWDVLSNEEVAEAITQFLPNCDPDDPHRYTLAAQDLVMRARGVLKDRGWRISNDRLGSGDDISVYVIPLIHGNKLS | PPM1H lacked activity | PPM1H exhibited no activity at the S10 site in this assay | Wildtype PPM1H but not PPM1H-H153L dephosphorylated p27 at T187 | phosphate release from synthetic phospho-peptide (Pi ColorLock Gold assay) (SKP2 S75 phospho-peptide): No evidence for PPM1H mediated dephosphorylation of the SKP2 phospho-peptides was observed; phosphate release from synthetic phospho-peptide (Pi ColorLock Gold assay) (p27 T157 phospho-peptide): Liberation of phosphate was observed with the p27 peptides, most notably with the T187 peptide; phosphate release from synthetic phospho-peptide (Pi ColorLock Gold assay) (p27 T187 phospho-peptide): Liberation of phosphate was observed with the p27 peptides, most notably with the T187 peptide; phosphate release from synthetic phospho-peptide (Pi ColorLock Gold assay) (SKP2 S64 phospho-peptide): No evidence for PPM1H mediated dephosphorylation of the SKP2 phospho-peptides was observed; phosphate release from synthetic phospho-peptide (Pi ColorLock Gold assay) (p27 S10 phospho-peptide): Liberation of phosphate was observed with the p27 peptides, most notably with the T187 peptide; phosphate release from synthetic phospho-peptide (Pi ColorLock Gold assay) (SKP2 S72 phospho-peptide): No evidence for PPM1H mediated dephosphorylation of the SKP2 phospho-peptides was observed |
| gst-PPM1J (protein) MLNRVRSAVAHLVSSGGAPPPRPKSPDLPNAASAPPAAAPEAPRSPPAKAGSGSATPAKAVEARASFSRPTFLQLSPGGLRRADDHAGRAVQSPPDTGRRLPWSTGYAEVINAGKSRHNEDQACCEVVYVEGRRSVTGVPREPSRGQGLCFYYWGLFDGHAGGGAAEMASRLLHRHIREQLKDLVEILQDPSPPPLCLPTTPGTPDSSDPSHLLGPQSCWSSQKEVSHESLVVGAVENAFQLMDEQMARERRGHQVEGGCCALVVIYLLGKVYVANAGDSRAIIVRNGEIIPMSREFTPETERQRLQLLGFLKPELLGSEFTHLEFPRRVLPKELGQRMLYRDQNMTGWAYKKIELEDLRFPLVCGEGKKARVMATIGVTRGLGDHSLKVCSSTLPIKPFLSCFPEVRVYDLTQYEHCPDDVLVLGTDGLWDVTTDCEVAATVDRVLSAYEPNDHSRYTALAQALVLGARGTPRDRGWRLPNNKLGSGDDISVFVIPLGGPGSYS | – | Neither enzyme exhibited activity at S10 | only PPM1H was effective at dephosphorylating p27 at T187 | – |
